Experimental data as given in article PMC7414021, “Dodecin as carrier protein for immunizations and bioengineering applications” (Scientific Reports, 2020).

What was measured:
[1] = molecular target: mtDod-mmACP (Mycobacterium tuberculosis | Mus musculus); experiment: SEC
[2] = molecular target: mtDod-mmACP (Mycobacterium tuberculosis | Mus musculus); experiment: SDS-PAGE (dodecamer stable in SDS)
mtDod(WT) = molecular target: T1, mtDod(WT) (Mycobacterium tuberculosis, UniProt I6XY36)
T1 construct: gene Rv1498A

[3] = molecular target: the molecule itself; experiment: SDS-PAGE (dodecamer stable in SDS)

For mtDod-mmACP, the stoichiometry N [1] was 12 and the stoichiometry N [2] was 12.

Cc1cc2nc3c(=O)[nH]c(=O)nc-3n(C[C@H](O)[C@H](O)[C@H](O)COP(=O)(O)O)c2cc1C [FMN] was tested, and the “thermocyclic fluorescence assay (quenching of FMN fluorescence on binding to the)” value (mtDod(WT)) was “fluorescence quenching that is observed when flavins bind to dodecin”.

B1: Mycobacterium tuberculosis dodecin wild type (natural protein)
chain: MSNHTYRVIEIVGTSPDGVDAAIQGGLARAAQTMRALDWFEVQSIRGHLVDGAVAHFQVTMKVGFRLEDS
notes: also called mtDod(WT); mtDod; copies: 12
With B1 the “stoichiometry N” value [3] was 12.
